In patent US5925558:

Columns and labels:
[1] = target: GFP N-terminal phosphorylation mutant 1MRRESLLF (Aequorea victoria); conditions: scale: relative rate
[2] = target: GFP N-terminal phosphorylation mutant 1MSKRRDSL (Aequorea victoria); conditions: scale: relative rate
[3] = target: GFP N-terminal phosphorylation mutant 1MRKGSCLF (Aequorea victoria); conditions: scale: relative rate
[4] = target: GFP N-terminal phosphorylation mutant 1MRRDSCLF (Aequorea victoria); conditions: scale: relative rate
[5] = target: GFP N-terminal phosphorylation mutant 1MSRRDSCF (Aequorea victoria); conditions: scale: relative rate
[6] = target: wild-type Aequorea green fluorescent protein (Aequorea victoria); conditions: scale: relative rate
[7] = target: GFP N-terminal phosphorylation mutant 1MRKGSLLF (Aequorea victoria); conditions: scale: relative rate
[8] = target: GFP phosphorylation mutant 155KRKSGI (Aequorea victoria); conditions: scale: relative rate
[9] = target: GFP phosphorylation mutant 172RRGSV (Aequorea victoria); conditions: scale: relative rate
[10] = target: GFP phosphorylation mutant 68RRFSA (Aequorea victoria); conditions: scale: relative rate
[11] = target: GFP phosphorylation mutant 25RRFSV (Aequorea victoria); conditions: scale: relative rate
[12] = target: GFP phosphorylation mutant 214KRDSM (Aequorea victoria); conditions: scale: relative rate
[13] = target: GFP N-terminal phosphorylation mutant -1… (Aequorea victoria)
[14] = target: GFP N-terminal phosphorylation mutant -2… (Aequorea victoria)
[15] = target: GFP N-terminal phosphorylation mutant 1MSRRRRSI (Aequorea victoria)
[16] = target: GFP N-terminal phosphorylation mutant 1MRRRRSII (Aequorea victoria)
[17] = target: GFP N-terminal phosphorylation mutant -3… (Aequorea victoria)

## protein kinase A catalytic subunit (enzyme)
[1]
  Relative rates of phosphorylation (32P incorporation): 3
[2]
  Relative rates of phosphorylation (32P incorporation): 5.5
[3]
  Relative rates of phosphorylation (32P incorporation): 5.1
[4]
  Relative rates of phosphorylation (32P incorporation): 3.7
[5]
  Relative rates of phosphorylation (32P incorporation): 2.1
[6]
  Relative rates of phosphorylation (32P incorporation): 1
[7]
  Relative rates of phosphorylation (32P incorporation): 1.6
[8]
  Relative rates of phosphorylation (32P incorporation): 2.5
[9]
  Relative rates of phosphorylation (32P incorporation): 1.57
[10]
  Relative rates of phosphorylation (32P incorporation): 0.6
[11]
  Relative rates of phosphorylation (32P incorporation): 1.75
[12]
  Relative rates of phosphorylation (32P incorporation): 1.88
[13]
  % Change in fluorescence upon phosphorylation: 43%
[14]
  % Change in fluorescence upon phosphorylation: 15%
[15]
  % Change in fluorescence upon phosphorylation: 40%
[16]
  % Change in fluorescence upon phosphorylation: 70%
[17]
  % Change in fluorescence upon phosphorylation: 70%
